Molecular target: protein sHIP (streptococcal Histidine-rich glycoprotein Interacting Protein), sHIPwt (S. pyogenes)
Assay: AUC; sedimentation velocity, 20°C, 50000 rpm, 20 mM MES pH 5.5; c(S) distribution compared with theoretical sedimentation coefficients (HYDROPRO)

protein sHIP (streptococcal Histidine-rich glycoprotein Interacting Protein), sHIPwt (natural protein)
stoichiometry N: 4
